Biological target: the molecule itself
Assay: cryo-EM structure

B1: hZnT1-D47N/D255N double mutant (natural protein, human, UniProt Q9Y6M5 1-507, looked up)
chain: MGCWGRNRGRLLCMLALTFMFMVLEVVVSRVTSSLAMLSDSFHMLSNVLALVVALVAERFARRTHATQKNTFGWIRAEVMGALVNAIFLTGLCFAILLEAIERFIEPHEMQQPLVVLGVGVAGLLVNVLGLCLFHHHSGFSQDSGHGHSHGGHGHGHGLPKGPRVKSTRPGSSDINVAPGEQGPDQEETNTLVANTSNSNGLKLDPADPENPRSGDTVEVQVNGNLVREPDHMELEEDRAGQLNMRGVFLHVLGNALGSVIVVVNALVFYFSWKGCSEGDFCVNPCFPDPCKAFVEIINSTHASVYEAGPCWVLYLDPTLCVVMVCILLYTTYPLLKESALILLQTVPKQIDIRNLIKELRNVEGVEEVHELHVWQLAGSRIIATAHIKCEDPTSYMEVAKTIKDVFHNHGIHATTIQPEFASVGSKSSVVPCELACRTQCALKQCCGTLPQAPSGKDAEKTPAVSISCLELSNNLEKKPRRTKAENIPAVVIEIKNMPNKQPESSL
stoichiometry N: 2

Reference: article PMC11051671 (Science Advances, 2024)
